Paper PMC4854385, “The Caenorhabditis elegans Protein FIC-1 Is an AMPylase That Covalently Modifies Heat-Shock 70 Family Proteins, Translation Elongation Factors and Histones” (PLoS Genetics, 2016)
Changes are numbered by the printed parent chain. Numbers in names are those of the source.

Key:
[1] = molecular target: the molecule itself; test: cell-based or functional assay
[2] = molecular target: the molecule itself; test: crystal structure; hanging drop vapor diffusion, 18°C, 0.1 M MES pH 6.5, 1.1 M ammonium sulfate; two molecules in the asymmetric unit

B1: FIC-1_(134-508) E274G/I298D (domain or fragment, C. elegans, UniProt Q23544 134-508, looked up)
chain: DEKRENDPAKVKEAILAAKAAGRSRKDGNLERAMTIMEHAMALAPTNPQILIEMGQIREMHNELVEADQCYVKALAYDPGNSEALVLRARTTPLVSAIDRKMLRSVHDLRDEFNHLQHSTALRRMMRETYFLYVYHTVAIGGNTLSLGQTRAILESGMVIPGKSDREHNEVIGMDAALRFLNCSLLSKEHDEISIDDILEMHRRVLGNADPVEAGRIRTTQVYVGRFTPVSPEYVMEQLKDIVDWLNDESTLTIDPIERAAIAHYKLVLVHPFTDGNGRTARLLLNLIMMRSGFPPVILPVETRAEYYASLHVANLGDLRPFVRYVAKHSEASIQRYIGAMKTSSDNILNSGDSKLTPEESEVSEKIEAECRAGN
self-AMPylation of FIC-1 E274G/I298D relative to FIC-1 E274G (in vitro AMPylation with α33P-ATP, autoradiography) [1]: 46% | target (histone H3) AMPylation by FIC-1 E274G/I298D relative to FIC-1 E274G (in vitro AMPylation with α33P-ATP, autoradiography) [1]: 11%

B2: FIC-1_(134-508) E274G (domain or fragment, C. elegans, UniProt Q23544 134-508, looked up)
chain: B1 chain with D165I
notes: C. elegans Fic protein FIC-1, residues 134-508, constitutively active mutant; transmembrane helix and membrane proximal domain excluded; Non-cleavable N-terminal 6x His tag; also called FIC-1 E274G; source: E. coli LOBSTR-RIL(DE3), purified (Ni-Sepharose, size-exclusion chromatography); not shown: His6, N-terminal, kept
binding result [2]: binds

B3: FIC-1_(134-508) (domain or fragment, C. elegans, UniProt Q23544 134-508, looked up)
chain: B1 chain with G141E, D165I
notes: C. elegans Fic protein FIC-1, residues 134-508; transmembrane helix and membrane proximal domain excluded; also called FIC-1 wild type; FIC-1 wildtype (wt); source: E. coli LOBSTR-RIL(DE3), purified (Ni-Sepharose, size-exclusion chromatography); not shown: His6, N-terminal, kept
binding result [2]: binds
